Data published in IntAct's records for PubMed 25066297.

B1: Probable thioesterase PNKD (Homo sapiens), Q8N490 (parent)
chain: MAAVVAATALKGRGARNARVLRGILAGATANKASHNRTRALQSHSSPEGKEEPEPLSPELEYIPRKRGKNPMKAVGLAWYSLYTRTWLGYLFYRQQLRRARNRYPKGHSKTQPRLFNGVKVLPIPVLSDNYSYLIIDTQAQLAVAVDPSDPRAVQASIEKEGVTLVAILCTHKHWDHSGGNRDLSRRHRDCRVYGSPQDGIPYLTHPLCHQDVVSVGRLQIRALATPGHTQGHLVYLLDGEPYKGPSCLFSGDLLFLSGCGRTFEGNAETMLSSLDTVLGLGDDTLLWPGHEYAEENLGFAGVVEPENLARERKMQWVQRQRLERKGTCPSTLGEERSYNPFLRTHCLALQEALGPGPGPTGDDDYSRAQLLEELRRLKDMHKSK

Variants of: B1
Conditions: with mk03_human MAPK3, P27361
Chain of mk03_human MAPK3, P27361 (P27361 whole entry): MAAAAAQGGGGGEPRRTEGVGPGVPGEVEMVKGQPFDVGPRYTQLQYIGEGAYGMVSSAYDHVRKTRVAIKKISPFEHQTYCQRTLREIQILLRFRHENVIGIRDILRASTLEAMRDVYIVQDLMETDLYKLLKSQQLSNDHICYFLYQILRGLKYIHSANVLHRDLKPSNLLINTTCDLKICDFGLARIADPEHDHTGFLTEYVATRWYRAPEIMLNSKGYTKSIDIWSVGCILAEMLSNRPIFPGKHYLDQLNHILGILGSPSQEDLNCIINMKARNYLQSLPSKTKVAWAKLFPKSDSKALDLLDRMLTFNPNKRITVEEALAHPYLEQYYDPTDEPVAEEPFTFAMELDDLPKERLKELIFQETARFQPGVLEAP

effect of a mutation on the interaction | Variant
disrupting interaction | S46A
